Experimental data published in publication PMC6789926.

Target: tetrameric soluble CedV G (sG) (Cedar virus)
Assay: SPR

Molecule	Kd	koff	kon
human ephrin-A1 Fc (Fc fusion)	4210 nM	0.00981 s⁻¹	
mouse ephrin-B2 (soluble, Fc-conjugated) (from UniProt P52800 29-232) (Fc fusion)	0.56 nM	0.00103 s⁻¹	1.84e+06 M⁻¹ s⁻¹
mouse ephrin-B1 (soluble, Fc-conjugated) (from UniProt P52795 25-345) (Fc fusion)	0.24 nM	0.00029 s⁻¹	
mouse ephrin-A1 (soluble, Fc-conjugated) (Fc fusion) ADRHIVFWNSSNPKFREEDYTVHVQLNDYLDIICPHYEDDSVADAAMERYTLYMVEHQEYVACQPQSKDQVRWNCNRPSAKHGPEKLSEKFQRFTPFILGKEFKEGHSYYYISKPIYHQESQCLKLKVTVNGKITHNPQAHVNPQEKRLQADDPEVQVLHSIGYS	24.5 nM	0.00179 s⁻¹	73900 M⁻¹ s⁻¹
human ephrin-A5 (soluble, Fc-conjugated) (Fc fusion) QDPGSKAVADRYAVYWNSSNPRFQRGDYHIDVCINDYLDVFCPHYEDSVPEDKTERYVLYMVNFDGYSACDHTSKGFKRWECNRPHSPNGPLKFSEKFQLFTPFSLGFEFRPGREYFYISSAIPDNGRRSCLKLKVFVRPTNSCMKTIGVHDRVFDVNDKVENSLEPADDTVHESAEPSRGEN	113 nM	0.00079 s⁻¹	
mouse ephrin-A2 (soluble, Fc-conjugated) (Fc fusion) RNEDPARANADRYAVYWNRSNPRFQVSAVGDGGGYTVEVSINDYLDIYCPHYGAPLPPAERMERYILYMVNGEGHASCDHRQRGFKRWECNRPAAPGGPLKFSEKFQLFTPFSLGFEFRPGHEYYYISATPPNLVDRPCLRLKVYVRPTNETLYEAPEPIFTSN	196 nM	0.00636 s⁻¹	32400 M⁻¹ s⁻¹
